In patent US20050221395A1, “Methods and products based on oligomerization of stress proteins” (priority 2002, published 2005):
Values joined by “and” are separate entries in the source; they are usually repeats but may differ in a detail not shown here. Identical values can stand only once.

Tests used:
[1] = ATPase activity, luciferin-luciferase luminescence assay (geldanamycin inhibitable); format: biochemical; conditions: for ATPase activity of SEC fractions (rate of ATP hydrolysis per mg protein): SEC fractions of human tumor derived gp96-peptide complex (FIG. 6); for ATPase: gp96 loaded with AH1 19mer peptide
Procedure: Finally, ATPase activity of each fraction was determined based on the loss of ATP using a luciferin-luciferase luminescence assay. Values are reported as the rate of ATP hydrolysis per mg protein. […] The ATPase activity was in the dimer containing fractions with minimal activity in the high molecular weight aggregate and monomer fractions.
ATPase activity was measured as the loss of ATP following 4 hr. of incubation at 37° C. using a luciferin-luciferase luminescence assay. Values are reported as the rate of ATP hydrolysis per mg protein and represent only the activity that is geldanamycin inhibitable to ensure specificity for the hsp90 family of heat shock proteins.
The assay is performed as follows. Gp96 samples (2 μL, 500 μg/mL in PBS) were mixed with 2 μL of a solution comprising a 10 fold molar excess ATP in PBS containing 12.5 mM MgCl2, and either 20% (v/v) DMSO or DMSO containing […] geldanamycin. This mixture was incubated at 37° C. for 4 hr. Samples were then diluted to 100 μL with PBS and the ATP contained in 50 μL of each sample was quantified using the ROCHE CLSII bioluminescence ATP assay kit. Bioluminescence was measured using a Molecular Devices Lmax luminometer. The difference in ATP concentration between uninhibited and Geldanamycin-inhibited measurements reflects the amount of ATP hydrolysis specific to gp96. Rates were calculated from this differential and expressed as nmoles of ATP hydrolyzed per mg protein per hr.

[2] = test system: AH1 peptide-specific CTLs co-cultured with RAW264.7 cells; test: hybrid antigen re-presentation assay (IFN-γ by ELISA); format: cell-based, mouse; conditions: for IFN-γ response (T-cell stimulation): 10 μg/mL or diluted with unloaded gp96 at 1:3, 1:10 or 1:30, APCs and CTLs (FIG. 7); for ability to stimulate T-cells: heated at 60° C. for 10 min
Procedure: For this purpose, a hybrid antigen re-presentation bioassay system was developed in which the mouse antigen, AH1 peptide, for which a mouse CD8 T-cell line is available, was exchanged in vitro onto human tumor derived hsp. The gp96-peptide complex was then tested for its ability to facilitate antigen re-presentation and antigen-specific T-cell stimulation.
The antigen presenting cell line, RAW264.7 (ATCC #TIB-71), is an Abelson murine leukemia virus transformed macrophage cell line, which originated from the BALB/c strain (H-2^d). The CTL line specific for the murine CT26 tumor derived AH1 epitope was obtained from P. Srivastava (U. of Conn. Medical Center). They were re-stimulated on a weekly basis with the AH1 peptide plus irradiated BALB/c splenocytes. The 9 amino acid AH1 peptide epitope ([…]) and the 19mer peptide ([…]) which contained this epitope were obtained from Sigma Genosys 1442 lake Front Circle, The Woodlands, Tex. 77380-3600.
AH1 19mer peptide was added to purified gp96 preparations at a ratio of 50:1 peptide to protein and the mixture incubated at 37° C. for 30 mm. Unbound peptide was removed by 4 cycles of spin dialysis with 10 volumes of PBS using 30K MWCO Centricon spin filter units (Millipore). Total protein was determined by the Bradford assay.
The in vitro antigen re-presentation assay has been described. Briefly, 10^4 AH1 peptide-specific CTLs (day 8 post stimulation) were co-cultured with 10^4 RAW264.7 cells in 96-well flat bottom plates. In vitro loaded gp96 samples at 10 μg/mL were analyzed neat or diluted with unloaded gp96 at the indicated amounts in order to maintain constant protein concentration. Protein samples and controls were added to the wells and incubated at 37° C. for 18 hr. Following centrifugation, the supernatants were harvested for analysis of IFN-γ levels by ELISA (R&D Systems). Reported values represent the average of six replicates. AH1 9mer peptide served as a positive control and unloaded gp96, AH1 19mer peptide and media alone as negative controls. Additional negative controls were provided by applying identical sets of samples to plates that contained either CTLs or APCs only.
The hybrid re-presentation assay measures the ability of human gp96, loaded with AH1 19mer peptide, to deliver antigen to mouse APCs to facilitate re-presentation leading to simulation of antigen specific T-cells. […] The second and third panels are controls for CTLs and APCs alone. Each data set contains media alone, unloaded gp96 and AH1 19mer as negative controls and AH1 9mer peptide, which can exchange directly onto surface MHC I molecules, as the positive control. Gp96/AH1 19mer complex was applied at 10 μg/mL or diluted with unloaded gp96 at 1:3, 1:10 or 1:30.

[3] = % dimer by size exclusion chromatography (SEC); format: physicochemical; conditions: for % Dimer: Superose 6 column, gp96 loaded with AH1 19mer peptide; for dimeric form by SEC: mild heat treatment
Procedure: Gp96-peptide complex was isolated from murine CT-26 tumors. Separate aliquots of each preparation were either maintained at 4° C. (untreated) or subjected to mild heat treatment to denature the complex.
HPLC size exclusion chromatography is currently being optimized and has been run under a few different formats. The column was either a TSK 3000SWXL (Toso Haus) or a Superose 6 (Amersham Pharmacia) equilibrated in 10 mM phosphate buffer, pH 7.1, with 300 mM NaCl. All experiments were run at room temperature on a Waters Alliance or HP 1100 HPLC systems at a flow rate of 0.5 mL/min. The following results for human tumor derived gp96 (reported in Table 3, below) were all analyzed on the Superose 6 column. % dimer values represent the area percent of the dimer peak relative to total peak area.

NECA ligand binding = test: NECA ligand binding
Procedure: Dimer content also correlates with the ability of gp96 to bind NECA. Using the gp96-peptide complex isolated from CT-26 tumors, aliquots of each preparation were also analyzed for NECA ligand binding.

Tumor specific T-cell = test: antigen re-presentation and T-cell activation measured by IFN-γ release; format: cell-based, murine
Procedure: Re-presentation of antigenic peptides by hsps is another biological activity of significance. […] Immune response mediated by RAW264.7 APCs and CTLs specific to the peptide of the gp96 complex was measured by IFN-γ levels secreted by the CTLs. IFN-γ is a cytokine that is known in the art to be an indicator of general immune status; it also plays a major role in tumor recognition and rejection. […] A re-presentation assay is described in section 8, by way of example and not limitation.
The same samples were then analyzed for antigen re-presentation and T-cell activation as measured by IFN-γ expression.

Molecule: Fractions 8-10: SEC fractions of human ovarian tumor derived gp96-peptide complex representing the dimer
- ATPase activity of SEC fractions (rate of ATP hydrolysis per mg protein) [1]: highest

Molecule: fractions 2-5: SEC fractions of human ovarian tumor derived gp96-peptide complex containing mostly higher molecular weight aggregates
- ATPase activity of SEC fractions (rate of ATP hydrolysis per mg protein) [1]: significantly less

Molecule: fractions 11-15: SEC fractions of human ovarian tumor derived gp96-peptide complex: monomeric species, degradation products and lower molecular weight species
- ATPase activity of SEC fractions (rate of ATP hydrolysis per mg protein) [1]: significantly less

Molecule: human endometrial: gp96 purified from human endometrial tumor, loaded in vitro with AH1 19mer peptide (RVTYHSPSYVYHQFERRAK)
- IFN-γ response (T-cell stimulation) [2]: dose dependent IFN-γ response
- ability to stimulate T-cells [2]: abolished
- ATPase ([1]; heated at 60° C. for 10 min): 0 nmol/mg/h
- ATPase ([1]; untreated): 8.5 ± 0.3 nmol/mg/h and 9.4 ± 0.5 nmol/mg/h
- % Dimer ([3]; heated at 60° C. for 10 min): 0%
- % Dimer ([3]; untreated): 86% and 83%

Molecule: human gp96-peptide complex: human gp96-peptide complex used in accelerated stability (mild heat) study
- ATPase activity ([1]; mild heat treatment): abolished
- dimeric form by SEC [3]: converted dimeric protein to high molecular weight aggregates

Molecule: human renal: gp96 purified from human renal cell carcinoma, loaded in vitro with AH1 19mer peptide
- IFN-γ response (T-cell stimulation) [2]: specific and dose dependent stimulation of T-cells
- ability to stimulate T-cells [2]: abrogated
- ATPase ([1]; heated at 60° C. for 10 min): 0 nmol/mg/h
- ATPase ([1]; untreated): 10.3 ± 0.1 nmol/mg/h
- % Dimer ([3]; heated at 60° C. for 10 min): 0%
- % Dimer ([3]; untreated): 84%

Molecule: recombinant gp96: samples of recombinant gp96 incubated at various temperatures for 10 minutes (FIG. 8)
- ATPase activity ([1]; incubated at the indicated temperatures for 10 minutes (FIG. 8)): loss of ATPase activity

Molecule: unloaded gp96: human tumor derived gp96 not loaded with AH1 19mer peptide; negative control and diluent
- IFN-γ response (T-cell stimulation) [2]: no stimulation

B1: gp96-peptide complex isolated from CT-26 tumors: Gp96-peptide complex isolated from murine CT-26 tumors; aliquots kept at 4° C. or heat treated (protein, UniProt P08113 22-802, looked up)
Endoplasmin: DDEVDVDGTVEEDLGKSREGSRTDDEVVQREEEAIQLDGLNASQIRELREKSEKFAFQAEVNRMMKLIINSLYKNKEIFLRELISNASDALDKIRLISLTDENALAGNEELTVKIKCDKEKNLLHVTDTGVGMTREELVKNLGTIAKSGTSEFLNKMTEAQEDGQSTSELIGQFGVGFYSAFLVADKVIVTSKHNNDTQHIWESDSNEFSVIADPRGNTLGRGTTITLVLKEEASDYLELDTIKNLVRKYSQFINFPIYVWSSKTETVEEPLEEDEAAKEEKEESDDEAAVEEEEEEKKPKTKKVEKTVWDWELMNDIKPIWQRPSKEVEEDEYKAFYKSFSKESDDPMAYIHFTAEGEVTFKSILFVPTSAPRGLFDEYGSKKSDYIKLYVRRVFITDDFHDMMPKYLNFVKGVVDSDDLPLNVSRETLQQHKLLKVIRKKLVRKTLDMIKKIADEKYNDTFWKEFGTNIKLGVIEDHSNRTRLAKLLRFQSSHHSTDITSLDQYVERMKEKQDKIYFMAGSSRKEAESSPFVERLLKKGYEVIYLTEPVDEYCIQALPEFDGKRFQNVAKEGVKFDESEKTKESREATEKEFEPLLNWMKDKALKDKIEKAVVSQRLTESPCALVASQYGWSGNMERIMKAQAYQTGKDISTNYYASQKKTFEINPRHPLIRDMLRRIKEDEDDKTVMDLAVVLFETATLRSGYLLPDTKAYGDRIERMLRLSLNIDPEAQVEEEPEEEPEDTSEDAEDSEQDEGEEMDAGTEEEEEETEKESTEKDEL
modifications: CT-26 tumor derived, complexed with peptides
notes: Gp96-peptide complex isolated from murine CT-26 tumors; aliquots kept at 4° C. or heat treated
- Specific NECA activity (NECA ligand binding; 4° C. (untreated)): 1.68 μg NECA bound gp96/μg gp96 and 1.96 μg NECA bound gp96/μg gp96 and 3.27 μg NECA bound gp96/μg gp96
- Specific NECA activity (NECA ligand binding; 49° C. at 15 min): 1.97 μg NECA bound gp96/μg gp96
- Specific NECA activity (NECA ligand binding; 49° C. at 25 min): 1.80 μg NECA bound gp96/μg gp96
- Specific NECA activity (NECA ligand binding; 49.5° C. at 30 min): 0.12 μg NECA bound gp96/μg gp96
- Specific NECA activity (NECA ligand binding; 60° C. at 30 min): 0.04 μg NECA bound gp96/μg gp96 and 0.07 μg NECA bound gp96/μg gp96
- Specific NECA activity (NECA ligand binding; 60° C. at 60 min): 0.08 μg NECA bound gp96/μg gp96
- Specific NECA activity (NECA ligand binding; 60° C. at 120 min): 0.10 μg NECA bound gp96/μg gp96
- % Dimer by SEC ([3]; 4° C. (untreated)): 84.44% and 87% and 75.8%
- % Dimer by SEC ([3]; 49° C. at 15 min): 74%
- % Dimer by SEC ([3]; 49° C. at 25 min): 54%
- % Dimer by SEC ([3]; 49.5° C. at 30 min): 0%
- % Dimer by SEC ([3]; 60° C. at 30 min): 0%
- % Dimer by SEC ([3]; 60° C. at 60 min): 0%
- % Dimer by SEC ([3]; 60° C. at 120 min): 0%
- dimeric form by SEC [3]: rapidly converts to higher molecular weight aggregates
- Tumor specific T-cell activation (IFN-γ release) (Tumor specific T-cell; 49° C. at 15 min): 0 pg/mL
- Tumor specific T-cell activation (IFN-γ release) (Tumor specific T-cell; 49° C. at 25 min): 0 pg/mL
- Tumor specific T-cell activation (IFN-γ release) (Tumor specific T-cell; 49.5° C. at 30 min): 3150 pg/mL
- Tumor specific T-cell activation (IFN-γ release) (Tumor specific T-cell; 60° C. at 60 min): 9350 pg/mL
- Tumor specific T-cell activation (IFN-γ release) (Tumor specific T-cell; 60° C. at 120 min): 8100 pg/mL
